Fewer inactive variants are shown than the library holds.
Experiments:
[1] = test system: biotinyl-Phe-oxazolone; assay: self-aminoacylation, catalytic enhancement (BFO) (fold over background); higher = more active; k-Seq, kA / k0A0; sequences stand for … in GGGAAUGGAUCCACAUCUACGAAUUC…UUCACUGCAGACUUGACGAAGCUG
How it was run: (§1)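 Catalytic enhancement equals the median kA over the uncatalyzed rate, the latter read from the low-activity peak of a bimodal Gaussian fit. Values of kA came from fitting each sequence's fraction reacted to a pseudo-first-order model, with 1000 bootstraps. Reacted RNA was captured with streptavidin and quantified by triplicate qPCR and Illumina sequencing after 90 minutes at room temperature with 2–1250 μM biotinyl-aminoacyl-oxazolone and 0.43 μM mutagenized RNA pools bearing a 21-nt variable region.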

[2] = test system: biotinyl-Trp-oxazolone; assay: self-aminoacylation, catalytic enhancement (BWO) (fold over background); higher = more active; k-Seq, kA / k0A0; sequences stand for … in GGGAAUGGAUCCACAUCUACGAAUUC…UUCACUGCAGACUUGACGAAGCUG
How it was run: as §1

[3] = test system: biotinyl-Met-oxazolone; assay: self-aminoacylation, catalytic enhancement (BMO) (fold over background); higher = more active; k-Seq, kA / k0A0; sequences stand for … in GGGAAUGGAUCCACAUCUACGAAUUC…UUCACUGCAGACUUGACGAAGCUG
How it was run: as §1

[4] = test system: biotinyl-Ile-oxazolone; assay: self-aminoacylation, catalytic enhancement (BIO) (fold over background); higher = more active; k-Seq, kA / k0A0; sequences stand for … in GGGAAUGGAUCCACAUCUACGAAUUC…UUCACUGCAGACUUGACGAAGCUG
How it was run: as §1

[5] = test system: biotinyl-Val-oxazolone; assay: self-aminoacylation, catalytic enhancement (BVO) (fold over background); higher = more active; k-Seq, kA / k0A0; sequences stand for … in GGGAAUGGAUCCACAUCUACGAAUUC…UUCACUGCAGACUUGACGAAGCUG
How it was run: as §1

[6] = test system: biotinyl-Leu-oxazolone; assay: self-aminoacylation, catalytic enhancement (BLO) (fold over background); higher = more active; k-Seq, kA / k0A0; sequences stand for … in GGGAAUGGAUCCACAUCUACGAAUUC…UUCACUGCAGACUUGACGAAGCUG
How it was run: as §1

Sequence	self-aminoacylation [1]	self-aminoacylation [2]	self-aminoacylation [3]	self-aminoacylation [4]	self-aminoacylation [5]	self-aminoacylation [6]
CUACUUCAAACAGUGGGUCUG [Fam1A.1 aminoacylation ribozyme variant]	0.834	0.989	0.764	0.995	0.823	0.935
CUACUUCAAACAUGCGGUCUG [Fam1A.1 aminoacylation ribozyme variant]	3.21	0.769	1.39	1.27	1.34	1.61
CUACUUCAAACAUUCGCUCUG [Fam1A.1 aminoacylation ribozyme variant]	3.16	0.81	1.12	1.07	0.985	1.24
CUACUUCAAACAUUCGGUCCG [Fam1A.1 aminoacylation ribozyme variant]	0.323	1.52	0.978	0.823	0.884	0.959
CUACUUCAAACCAUCAGUCUG [Fam1A.1 aminoacylation ribozyme variant]	1.08	0.593	0.695	0.847	0.768	0.762
CUACUUCAAACCAUCGGUCUG [Fam1A.1 aminoacylation ribozyme variant]	0.956	0.673	0.702	0.794	0.833	0.661
CUACUUCAAACCAUGGGUCUG [Fam1A.1 aminoacylation ribozyme variant]	0.455	0.564	0.765	0.966	0.776	0.827
CUACUUCAAACCAUUGGUCUG [Fam1A.1 aminoacylation ribozyme variant]	1.03	0.564	0.726	0.883	0.891	0.782
CUACUUCAAACGAUCGGUAUG [Fam1A.1 aminoacylation ribozyme variant]	0.588	0.727	0.585	0.544	0.675	0.591
CUACUUCAAACGAUCGGUCAG [Fam1A.1 aminoacylation ribozyme variant]	0.808	0.625	0.36	0.621	0.535	0.566
CUACUUCAAACGAUCGUUCUG [Fam1A.1 aminoacylation ribozyme variant]	0.639	0.447	0.442	0.493	0.632	0.423
CUACUUCAAACUAACGGUCUG [Fam1A.1 aminoacylation ribozyme variant]	0.924	0.665	0.787	0.778	0.75	0.796
CUACUUCAAACUAUCAGUCUG [Fam1A.1 aminoacylation ribozyme variant]	1.25	0.813	0.975	1.06	1.05	0.801
CUACUUCAAACUAUCCGUCUG [Fam1A.1 aminoacylation ribozyme variant]	0.844	0.852	0.889	0.955	1.08	0.936
CUACUUCAAACUAUCGGUCGG [Fam1A.1 aminoacylation ribozyme variant]	0.997	1.05	1.02	1.05	0.893	1.01
CUACUUCAAACUAUCGGUCUC [Fam1A.1 aminoacylation ribozyme variant]	1.19	0.598	0.747	0.833	0.885	0.759
CUACUUCAAACUAUCUGUCUG [Fam1A.1 aminoacylation ribozyme variant]	1.09	0.738	0.846	0.869	0.867	0.767
CUACUUCAAAGAAUCGGUCAG [Fam1A.1 aminoacylation ribozyme variant]	1.48	0.818	0.574	0.652	0.658	0.601
CUACUUCAAAGAAUCGGUCCG [Fam1A.1 aminoacylation ribozyme variant]	0.351	0.384	0.638	0.718	0.607	0.866
CUACUUCAAAGAAUCGGUCUG [Fam1A.1 aminoacylation ribozyme variant]	6.52	4.78	0.759	0.777	0.76	0.883
CUACUUCAAAGACUCGGUCUG [Fam1A.1 aminoacylation ribozyme variant]	3.52	1.35	1.16	1.12	1.2	1.01
CUACUUCAAAGAGUCGGUCUG [Fam1A.1 aminoacylation ribozyme variant]	0.46	0.754	1.13	0.695	0.835	0.849
CUACUUCAAAUAAUCGGUCGG [Fam1A.1 aminoacylation ribozyme variant]	6.6	5.93	0.909	1.07	0.832	1.13
CUACUUCAAAUAAUCGGUCUA [Fam1A.1 aminoacylation ribozyme variant]	7.72	3.51	0.659	0.795	0.78	0.727
CUACUUCAAAUUAUCGGUCUG [Fam1A.1 aminoacylation ribozyme variant]	0.806	0.849	1.01	1.12	1.11	0.945
CUACUUCAACCAAUCGAUCUG [Fam1A.1 aminoacylation ribozyme variant]	1.98	1.04	0.62	0.763	0.665	0.598

Sequence	self-aminoacylation [1]	self-aminoacylation [2]	self-aminoacylation [3]	self-aminoacylation [4]	self-aminoacylation [5]	self-aminoacylation [6]
CUACUUCAACCAAUCGCUCUG [Fam1A.1 aminoacylation ribozyme variant]	1.4	1.43	0.806	0.872	0.729	0.843
CUACUUCAACCAAUCGGUCUG [Fam1A.1 aminoacylation ribozyme variant]	33.1	18.7	1.07	0.988	1.04	1.48
CUACUUCAACCAAUCUGUCUG [Fam1A.1 aminoacylation ribozyme variant]	2.12	0.777	0.504	0.597	0.592	0.485
CUACUUCAACCAGUCGGUCUG [Fam1A.1 aminoacylation ribozyme variant]	0.542	0.564	0.662	0.712	0.833	0.788
CUACUUCAAGCAAGCGGUCUG [Fam1A.1 aminoacylation ribozyme variant]	0.897	0.849	0.867	1.12	0.854	0.958
CUACUUCAAGCAAUCCGUCUG [Fam1A.1 aminoacylation ribozyme variant]	1.86	1.25	0.833	1	1.17	0.941
CUACUUCAAGCAAUCGGACUG [Fam1A.1 aminoacylation ribozyme variant]	4.71	2.58	0.714	0.86	0.861	1.04
CUACUUCAAGCAAUCGGCCUG [Fam1A.1 aminoacylation ribozyme variant]	18.9	16.4	1.74	1.85	1.6	2.44
CUACUUCAAGCAAUGGGUCUG [Fam1A.1 aminoacylation ribozyme variant]	0.863	1.09	0.934	1.02	0.998	0.852
CUACUUCAAUCAAUCCGUCUG [Fam1A.1 aminoacylation ribozyme variant]	0.657	0.695	0.664	0.758	0.672	0.694
CUACUUCAAUCAAUCGGGCUG [Fam1A.1 aminoacylation ribozyme variant]	8.36	7.13	1.31	1.41	1.24	1.38
CUACUUCAAUCAAUCGGUAUG [Fam1A.1 aminoacylation ribozyme variant]	10.8	6.33	0.961	0.797	0.848	0.88
CUACUUCAAUCAAUCGUUCUG [Fam1A.1 aminoacylation ribozyme variant]	0.629	0.428	0.379	0.491	0.596	0.472
CUACUUCAAUCCAUCGGUCUG [Fam1A.1 aminoacylation ribozyme variant]	0.866	0.728	0.738	0.857	0.821	0.737
CUACUUCACACAAACGGUCUG [Fam1A.1 aminoacylation ribozyme variant]	1.07	0.616	0.626	0.771	0.746	0.746
CUACUUCACACAAUAGGUCUG [Fam1A.1 aminoacylation ribozyme variant]	1.01	0.394	0.474	0.6	0.605	0.469
CUACUUCACACAAUCCGUCUG [Fam1A.1 aminoacylation ribozyme variant]	0.747	0.495	0.913	0.859	0.854	0.81
CUACUUCACACAAUCGGACUG [Fam1A.1 aminoacylation ribozyme variant]	0.755	0.442	0.609	0.882	0.736	0.673
CUACUUCACACAAUCGGUGUG [Fam1A.1 aminoacylation ribozyme variant]	0.67	0.513	1.65	1.07	1.25	1.22
CUACUUCACACAUUCGGUCUG [Fam1A.1 aminoacylation ribozyme variant]	1.72	1.69	1.13	1.16	1.1	1.36
CUACUUCAGACAACCGGUCUG [Fam1A.1 aminoacylation ribozyme variant]	0.886	0.969	1.22	0.968	1.28	1.03
CUACUUCAGACAAUCGGUAUG [Fam1A.1 aminoacylation ribozyme variant]	0.586	0.529	0.636	0.719	0.704	0.717
CUACUUCAGACAAUCGGUCAG [Fam1A.1 aminoacylation ribozyme variant]	1.26	0.771	0.73	0.805	0.83	0.872
CUACUUCAGACUAUCGGUCUG [Fam1A.1 aminoacylation ribozyme variant]	0.949	0.939	0.734	0.816	0.943	0.832
CUACUUCAUACAAUCGGACUG [Fam1A.1 aminoacylation ribozyme variant]	0.573	0.387	0.418	0.751	0.676	0.609

Source: the supplement of paper PMC9233669
